Data as given in patent publication US20200262867A1 (WNTRX PHARMACEUTICALS, published 2020).
Bridges are numbered along the chain shown (N, C = ends). [ ]: non-standard residue; d: D form. Phe(4-Cl) = N[C@@H](Cc1ccc(Cl)cc1)C(=O)O; 2Nal = N[C@@H](Cc1ccc2ccccc2c1)C(=O)O; NMeR = CN[C@@H](CCCNC(=N)N)C(=O)O; NMeE = CN[C@@H](CCC(=O)O)C(=O)O; NMeQ = CN[C@@H](CCC(N)=O)C(=O)O; Cha = N[C@@H](CC1CCCCC1)C(=O)O; NMeD = CN[C@@H](CC(=O)O)C(=O)O; Cba = N[C@@H](CC1CCC1)C(=O)O; S5 = C=CCCC[C@](C)(N)C(=O)O

T1: β-catenin (UniProt P35222 1-781, limits assumed)
T1 construct: also called beta-catenin
T1 sequence (looked up): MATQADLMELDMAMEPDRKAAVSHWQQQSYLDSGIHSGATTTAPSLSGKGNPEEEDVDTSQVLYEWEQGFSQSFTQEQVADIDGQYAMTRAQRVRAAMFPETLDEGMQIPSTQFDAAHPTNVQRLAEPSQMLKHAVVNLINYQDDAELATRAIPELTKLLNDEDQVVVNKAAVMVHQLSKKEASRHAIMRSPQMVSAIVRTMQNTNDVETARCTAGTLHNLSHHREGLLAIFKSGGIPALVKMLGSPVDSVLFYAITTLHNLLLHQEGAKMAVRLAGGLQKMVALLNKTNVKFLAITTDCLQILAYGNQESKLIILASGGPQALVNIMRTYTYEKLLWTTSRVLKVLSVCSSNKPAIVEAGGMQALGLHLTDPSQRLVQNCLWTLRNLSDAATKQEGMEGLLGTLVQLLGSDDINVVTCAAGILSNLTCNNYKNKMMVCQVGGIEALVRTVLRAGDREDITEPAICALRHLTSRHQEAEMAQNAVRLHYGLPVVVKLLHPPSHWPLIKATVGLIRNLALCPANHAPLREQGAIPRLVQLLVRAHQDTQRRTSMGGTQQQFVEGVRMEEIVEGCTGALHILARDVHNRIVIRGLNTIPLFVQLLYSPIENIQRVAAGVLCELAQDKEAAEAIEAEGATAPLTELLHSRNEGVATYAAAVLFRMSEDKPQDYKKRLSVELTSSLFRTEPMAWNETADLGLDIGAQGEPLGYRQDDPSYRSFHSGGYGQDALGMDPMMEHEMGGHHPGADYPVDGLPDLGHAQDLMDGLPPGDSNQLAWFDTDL

B1: SEQ ID NO: 145 (peptide)
peptide: Ac-HRERSLQTLR[S5]IQQ[S5][Cba][2Nal]-NH2
modifications: staple 11-15
SMILES: CC[C@H](C)[C@@H]1NC(=O)[C@@](C)(NC(=O)[C@H](CCCNC(=N)N)NC(=O)[C@H](CC(C)C)NC(=O)[C@@H](NC(=O)[C@H](CCC(N)=O)NC(=O)[C@H](CC(C)C)NC(=O)[C@H](CO)NC(=O)[C@H](CCCNC(=N)N)NC(=O)[C@H](CCC(=O)O)NC(=O)[C@H](CCCNC(=N)N)NC(=O)[C@H](Cc2c[nH]cn2)NC(C)=O)[C@@H](C)O)CCCC=CCCC[C@@](C)(C(=O)N[C@@H](CC2CCC2)C(=O)N[C@@H](Cc2ccc3ccccc3c2)C(N)=O)NC(=O)[C@H](CCC(N)=O)NC(=O)[C@H](CCC(N)=O)NC1=O
B2: SEQ ID NO: 157 (peptide)
peptide: Ac-HR[NMeD]RSLQTLR[S5]IQR[S5][Cba][2Nal]-NH2
modifications: staple 11-15
SMILES: CC[C@H](C)[C@@H]1NC(=O)[C@@](C)(NC(=O)[C@H](CCCNC(=N)N)NC(=O)[C@H](CC(C)C)NC(=O)[C@@H](NC(=O)[C@H](CCC(N)=O)NC(=O)[C@H](CC(C)C)NC(=O)[C@H](CO)NC(=O)[C@H](CCCNC(=N)N)NC(=O)[C@H](CC(=O)O)N(C)C(=O)[C@H](CCCNC(=N)N)NC(=O)[C@H](Cc2c[nH]cn2)NC(C)=O)[C@@H](C)O)CCCC=CCCC[C@@](C)(C(=O)N[C@@H](CC2CCC2)C(=O)N[C@@H](Cc2ccc3ccccc3c2)C(N)=O)NC(=O)[C@H](CCCNC(=N)N)NC(=O)[C@H](CCC(N)=O)NC1=O
B3: SEQ ID NO: 14 (peptide)
peptide: Ac-HRERSLQTLR[S5]IQR[S5][Cba][2Nal]-NH2
modifications: staple 11-15
SMILES: CC[C@H](C)[C@@H]1NC(=O)[C@@](C)(NC(=O)[C@H](CCCNC(=N)N)NC(=O)[C@H](CC(C)C)NC(=O)[C@@H](NC(=O)[C@H](CCC(N)=O)NC(=O)[C@H](CC(C)C)NC(=O)[C@H](CO)NC(=O)[C@H](CCCNC(=N)N)NC(=O)[C@H](CCC(=O)O)NC(=O)[C@H](CCCNC(=N)N)NC(=O)[C@H](Cc2c[nH]cn2)NC(C)=O)[C@@H](C)O)CCCC=CCCC[C@@](C)(C(=O)N[C@@H](CC2CCC2)C(=O)N[C@@H](Cc2ccc3ccccc3c2)C(N)=O)NC(=O)[C@H](CCCNC(=N)N)NC(=O)[C@H](CCC(N)=O)NC1=O
B4: SEQ ID NO: 151 (peptide)
peptide: Ac-HR[NMeE]RSLQTLR[S5]IQR[S5][Cba][2Nal]-NH2
modifications: staple 11-15
SMILES: CC[C@H](C)[C@@H]1NC(=O)[C@@](C)(NC(=O)[C@H](CCCNC(=N)N)NC(=O)[C@H](CC(C)C)NC(=O)[C@@H](NC(=O)[C@H](CCC(N)=O)NC(=O)[C@H](CC(C)C)NC(=O)[C@H](CO)NC(=O)[C@H](CCCNC(=N)N)NC(=O)[C@H](CCC(=O)O)N(C)C(=O)[C@H](CCCNC(=N)N)NC(=O)[C@H](Cc2c[nH]cn2)NC(C)=O)[C@@H](C)O)CCCC=CCCC[C@@](C)(C(=O)N[C@@H](CC2CCC2)C(=O)N[C@@H](Cc2ccc3ccccc3c2)C(N)=O)NC(=O)[C@H](CCCNC(=N)N)NC(=O)[C@H](CCC(N)=O)NC1=O
B5: SEQ ID NO: 179 (peptide)
peptide: Ac-HRQRSLQTLR[S5]IQR[S5][Phe(4-Cl)][2Nal]-NH2
modifications: staple 11-15
SMILES: CC[C@H](C)[C@@H]1NC(=O)[C@@](C)(NC(=O)[C@H](CCCNC(=N)N)NC(=O)[C@H](CC(C)C)NC(=O)[C@@H](NC(=O)[C@H](CCC(N)=O)NC(=O)[C@H](CC(C)C)NC(=O)[C@H](CO)NC(=O)[C@H](CCCNC(=N)N)NC(=O)[C@H](CCC(N)=O)NC(=O)[C@H](CCCNC(=N)N)NC(=O)[C@H](Cc2c[nH]cn2)NC(C)=O)[C@@H](C)O)CCCC=CCCC[C@@](C)(C(=O)N[C@@H](Cc2ccc(Cl)cc2)C(=O)N[C@@H](Cc2ccc3ccccc3c2)C(N)=O)NC(=O)[C@H](CCCNC(=N)N)NC(=O)[C@H](CCC(N)=O)NC1=O
B6: SEQ ID NO: 146 (peptide)
peptide: Ac-HRERSLQTLR[S5]IQE[S5][Cba][2Nal]-OH
modifications: staple 11-15
SMILES: CC[C@H](C)[C@@H]1NC(=O)[C@@](C)(NC(=O)[C@H](CCCNC(=N)N)NC(=O)[C@H](CC(C)C)NC(=O)[C@@H](NC(=O)[C@H](CCC(N)=O)NC(=O)[C@H](CC(C)C)NC(=O)[C@H](CO)NC(=O)[C@H](CCCNC(=N)N)NC(=O)[C@H](CCC(=O)O)NC(=O)[C@H](CCCNC(=N)N)NC(=O)[C@H](Cc2c[nH]cn2)NC(C)=O)[C@@H](C)O)CCCC=CCCC[C@@](C)(C(=O)N[C@@H](CC2CCC2)C(=O)N[C@@H](Cc2ccc3ccccc3c2)C(=O)O)NC(=O)[C@H](CCC(=O)O)NC(=O)[C@H](CCC(N)=O)NC1=O
B7: SEQ ID NO: 156 (peptide)
peptide: Ac-HRQRS[Cba]QTLR[S5]IQR[S5][Cba][2Nal]-NH2
modifications: staple 11-15
SMILES: CC[C@H](C)[C@@H]1NC(=O)[C@@](C)(NC(=O)[C@H](CCCNC(=N)N)NC(=O)[C@H](CC(C)C)NC(=O)[C@@H](NC(=O)[C@H](CCC(N)=O)NC(=O)[C@H](CC2CCC2)NC(=O)[C@H](CO)NC(=O)[C@H](CCCNC(=N)N)NC(=O)[C@H](CCC(N)=O)NC(=O)[C@H](CCCNC(=N)N)NC(=O)[C@H](Cc2c[nH]cn2)NC(C)=O)[C@@H](C)O)CCCC=CCCC[C@@](C)(C(=O)N[C@@H](CC2CCC2)C(=O)N[C@@H](Cc2ccc3ccccc3c2)C(N)=O)NC(=O)[C@H](CCCNC(=N)N)NC(=O)[C@H](CCC(N)=O)NC1=O

Target: T1, β-catenin
Test: ALPHA Screen (BCL9/β-catenin);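 further: bead proximity readout with the polypeptide linked to donor beads and β-catenin fixed on acceptor beads, their binding bringing the beads close enough to emit signal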
Text: In this assay, a polypeptide is conjugated to a donor bead and its target protein (i.e., β-catenin) is attached to an acceptor bead. When the two beads are in proximity due to the binding of the polypeptide to the target protein, a signal is generated and the binding affinity of the polypeptide can be quantitatively calculated. The assay may be conducted in the presence or absence of an unconjugated control polypeptide.

Question: For Ac-H[NMeR]QRSLQTLR[S5]IQR[S5][Cba][2Nal]-NH2 (staple 11-15) [SEQ ID NO: 166], which IC50 is on record?
Answer: The IC50 was 403 nM.

Question: With B1 as the binder, how does the IC50 read?
Answer: Its IC50 is 154 nM.

Question: Ac-HRERSLQTL[NMeR][S5]IQR[S5][Cba][2Nal]-OH (staple 11-15; not fully specified) [SEQ ID NO: 152] was tested. Which IC50 did it give?
Answer: The IC50 was 794 nM.

Question: How did the IC50 turn out when B2 was run?
Answer: The IC50 was 525 nM.

Question: For B3, which IC50 is on record?
Answer: Its IC50 is 457 nM.

Question: With Ac-HRERSLQTLR[S5]IQR[S5]L[2Nal]-NH2 (staple 11-15; not fully specified; printed as HRERSLQTLRXIQRXL(2-Nal)) [SEQ ID NO: 6] as the binder, how does the IC50 read?
Answer: The IC50 was 670 nM.

Question: How did the IC50 turn out when Ac-HRQRS[Cha][NMeQ]TLR[S5]IQR[S5][Cha][2Nal]-NH2 (staple 11-15; also: N-MeGln at 7: D or L (both stated)) [SEQ ID NO: 185] was run?
Answer: The IC50 was 223 nM.

Question: With B4 as the binder, how does the IC50 read?
Answer: The IC50 was 261 nM.

Question: With Ac-HRERSLQTLR[S5]IQA[S5]L[2Nal]-NH2 (staple 11-15; not fully specified; printed as HRERSLQTLRXIQAXL(2-Nal)) [SEQ ID NO: 28] as the binder, how does the IC50 read?
Answer: The IC50 was 2000 nM.

Question: Which IC50 does the source give for B5 here?
Answer: Its IC50 is 59 nM.

Question: How did the IC50 turn out when Ac-HRQRTLQTLR[S5]IQR[S5][Cba][2Nal]-NH2 (staple 11-15) [SEQ ID NO: 159] was run?
Answer: Its IC50 is 291 nM.

Question: Which IC50 does the source give for B6 here?
Answer: The IC50 was 493 nM.

Question: How did the IC50 turn out when B7 was run?
Answer: The IC50 was 253 nM.

Question: Ac-HQERSLQTLR[S5]IQR[S5]L[2Nal]-NH2 (staple 11-15; not fully specified; printed as HQERSLQTLRXIQRXL(2-Nal)) [SEQ ID NO: 11] was tested. Which IC50 did it give?
Answer: Its IC50 is 2110 nM.

Question: Which IC50 does the source give for Ac-HRERSLQTLR[S5]IQA[S5][Cba][2Nal]-NH2 (staple 11-15; not fully specified; printed as HRERSLQTLRXIQAX(CBA)(2-Nal)) [SEQ ID NO: 29] here?
Answer: Its IC50 is 1350 nM.
